pKi: −log10 of the molar value. Ends that are not written are not given here. Peptide text beside a SMILES is read from it. * marks the point of attachment. Dansyl = CN(C)c1cccc2c(S(=O)(=O)*)cccc12
Molecular target: recombinant human farnesyl:protein transferase (hFPTase) (Homo sapiens, UniProt P49354+P49356)
Assay: continuous fluorescence assay of farnesyl:protein transferase activity with dansylated acceptor peptide
Format: biochemical
Conditions: for substrate of FPTase (fluorescence enhancement): other dansylated peptides synthesized to optimize the sensitivity of the assay
Method: FIG. 1A is a fluorescence progress curve, A, of the reaction catalyzed by recombinant human farnesyl:protein transferase (hFPTase; 0.5 nM) using Ds-GlyCysValLeySer (SEQ.ID.NO.:1) (1.0 μM) as substrate in the presence of a saturating concentration of farnesyl diphosphate ([…]) in assay buffer (50 mM Tris-HCl, pH 7.5, 5 mM DTT, 5 mM MgCl2, 10 μM ZnCl2, and 0.2% octyl-β-D-glucopyranoside) at 30° C. Fluorescence data in the integration mode were obtained on a SPEX Fluorolog Model F112X1 spectrofluorimeter with λex =340 nm (slit width=4 nm) and λem =505 nm (slit width=8 nm) using 4 mm square microcells. Concentrations of stock solutions of Ds-GlyCysValLeuSer (SEQ.ID.NO.: 1 ) (in 20 mM Tris-CHl, pH 7.5, 10 mM EDTA) were calculated from the extinction coefficient of the dansyl moiety at 340 nm(ε=4250 M^-1 cm^-1).
Double reciprocal plot of initial velocity versus Ds-GlyCysValLeuSer (SEQ.ID.NO.:1) concentration in the presence of (.cndot.)0, and 50 nM CysIlePheMet (SEQ.ID.NO.:2) at 30° C. Reactions (400 μL) contained hFPTase(1 nM), FPP (10 μM) and varying concentrations of Ds-GlyCysValLeuSer (SEQ.ID.NO.:1) with or without 50 nM peptide CysIlePheMet (SEQ.ID.NO.:2) in assay buffer (see FIG. 1).
The continuous FPTase activity assay is based on the enhancement of fluorescence and the accompanying shift to lower wavelength emission maximum of certain fluorophores, like dansyl, upon change from a polar to non-polar molecular environment (Lakowicz, Principles of Fluorescence Spectroscopy, Plenum Press, New York, (1983)). The present invention utilizes an acceptor peptide substrate with an environmentally sensitive fluorescence probe positioned proximally to the reaction center. Substrate pentapeptide N-dansyl-GlyCysValLeuSer(Ds Gly CysValLeuSer) (SEQ.ID.NO.1) and expected product N-dansyl-Gly(S-farnesyl-Cys)ValLeuSer(Ds-Gly[f-Cys]LeuSer were synthesized by standard methods.
(Pompliano, et al., Biochemistry, 31, 3800-3807 (1992)).

| Compound | substrate of FPTase (fluorescence enhancement) | other results |
| --- | --- | --- |
| Ds-CysValLeuSer (Dansyl-CVLS) [dansylated peptide] | substrates | – |
| Ds-LysCysValLeuSer (Dansyl-KCVLS) [dansylated peptide] | substrates | – |
| CC(C)=CCC/C(C)=C/CC/C(C)=C/CO[P@@](=O)(O)OP(=O)(O)O (stereo in doubt) [FPP, farnesyl diphosphate, reference compound] | – | Km (in the presence of Ds-GlyCysValLeuSer as acceptor substrate, read-out: KM (FPP)): 0.03 µM |
| CC(C)C[C@H](NC(=O)[C@@H](NC(=O)[C@H](CS)NC(=O)CNS(=O)(=O)c1cccc2c(N(C)C)cccc12)C(C)C)C(=O)N[C@@H](CO)C(=O)O [Ds-GlyCysValLeuSer, N-dansyl-L-glycinyl-L-cysteinyl-L-valinyl-L-leucinyl-L-serine] (Dansyl-GCVLS-OH) | – | kcat (Ds-GlyCysValLeuSer as acceptor substrate, Michaelis-Menten kinetics, assay buffer pH 7.5, 30° C.): 0.5 S^-1 |
| Ds-GlyCysCysValLeuSer | substrates | – |
| Ds-CysValIleMet (Dansyl-CVIM) [dansylated peptide] | substrates | – |
| CysIlePheMet (CIFM) [reference compound] | – | pKi (competitive inhibitor of Ds-GlyCysValLeuSer binding, hFPTase 1 nM, FPP 10 μM, 30° C.): 8.05 |

— patent US5525479A, “Fluorescence assay of Ras farnesyl protein transferase” (Merck & Co., Inc., priority 1994, dated 1996)
